Legend:
[1] = target: T1, GST-TORC2 (aa 161-181), wild-type (UniProt Q53ET0)
T1 sequence: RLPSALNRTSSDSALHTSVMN

[2] = target: GST-TORC2 (aa 161-181) Ser171Ala (UniProt Q53ET0)
GST-TORC2 (aa 161-181) Ser171Ala, sequence (Q53ET0 whole entry S171A, looked up, the tested form may be a part): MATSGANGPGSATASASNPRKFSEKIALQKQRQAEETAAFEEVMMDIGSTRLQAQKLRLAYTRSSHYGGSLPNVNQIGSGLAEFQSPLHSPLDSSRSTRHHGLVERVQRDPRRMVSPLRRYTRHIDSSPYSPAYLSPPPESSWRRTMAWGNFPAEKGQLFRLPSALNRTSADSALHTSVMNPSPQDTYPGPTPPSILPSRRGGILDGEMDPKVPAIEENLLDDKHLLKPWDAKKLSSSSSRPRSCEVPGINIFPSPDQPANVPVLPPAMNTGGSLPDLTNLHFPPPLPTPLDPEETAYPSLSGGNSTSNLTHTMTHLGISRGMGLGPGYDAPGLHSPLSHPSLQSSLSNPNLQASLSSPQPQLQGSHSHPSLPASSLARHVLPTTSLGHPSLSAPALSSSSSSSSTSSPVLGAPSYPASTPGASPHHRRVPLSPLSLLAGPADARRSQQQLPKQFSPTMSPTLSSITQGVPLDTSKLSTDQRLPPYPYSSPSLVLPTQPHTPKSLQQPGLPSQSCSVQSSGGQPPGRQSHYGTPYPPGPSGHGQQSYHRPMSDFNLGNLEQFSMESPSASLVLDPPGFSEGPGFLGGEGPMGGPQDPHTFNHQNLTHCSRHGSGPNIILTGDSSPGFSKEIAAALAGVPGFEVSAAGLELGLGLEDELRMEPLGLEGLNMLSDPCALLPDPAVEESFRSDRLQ

## purified AMPK (AMP-activated protein kinase) (Upstate Biotech)
[1]
  in vitro kinase assay, 32P incorporation: Activated AMPK phosphorylated wild-type, but not Ser171Ala mutant GST-TORC2 (161-181) peptide in vitro
[2]
  in vitro kinase assay, 32P incorporation: Activated AMPK phosphorylated wild-type, but not Ser171Ala mutant GST-TORC2 (161-181) peptide in vitro

From patent publication US20100190693
